Measurements from PMC5374404, “A key centriole assembly interaction interface between human PLK4 and STIL appears to not be conserved in flies” (Biology Open, 2017).
“And” between values parts separate entries of the source, which are not always exact repeats. Equal entries are not always repeated. Ends that are not written are not given here.

How the values were obtained:
[1] = biological target: the molecule itself; assay: crystal structure; STIL 726-750 alone, 0.91 Å; sitting drop, 19°C; tetramer (dimer of dimers) generated by crystallographic symmetry
[2] = biological target: T1, Drosophila Sak/PLK4 Polo-Box-3 domain (aa 657-745), tag cleaved (Drosophila melanogaster (Fruit fly), UniProt O97143); assay: analytical gel filtration
T1 chain: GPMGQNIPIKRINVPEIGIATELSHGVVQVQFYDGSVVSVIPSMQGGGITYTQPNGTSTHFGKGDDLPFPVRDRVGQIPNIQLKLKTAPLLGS

[3] = biological target: the molecule itself; assay: SEC-MALS; STIL CCD (aa 717-758) alone, 100 µl injected at 62 to 4000 µM over an S200 10/300 column; 50 mM Tris pH 7.5, 150 mM NaCl, 2 mM DTT, 0.4 ml/min
[4] = biological target: the molecule itself; assay: SEC-MALS; apo HsPB3 (aa 884-970) alone, 100 µl at 200 µM over a Superdex 200 10/300 column; 50 mM Tris pH 7.5, 150 mM NaCl, 2 mM DTT

B1: human STIL coiled-coil domain (aa 726-750), tag cleaved (domain or fragment)
chain: GGSLTEQDRQLRLLQAQIQRLLEAQSLM
notes: remnant left at the N-terminus of the CCD after TEV cleavage of the His-lipoyl tag; STIL, human, coiled-coil domain, residues 726-750; also called STIL^726-750; HsCCD; source: E. coli C41, purified (Ni-NTA, TEV cleavage, reverse Ni-NTA, size exclusion); not shown: His, N-terminal, cleaved; lipoyl domain (B. stearothermophilus dihydrolipoamide acetyltransferase), N-terminal, cleaved
- stoichiometry N [1]: 4

Binder: NKSDLAALVSLVESVRHEQQQLRNLCEMILEQQQRAK (protein, also: His-lipoyl-tagged) [His-lipoyl-tagged Drosophila Ana2 coiled-coil domain (aa 193-229)]
- binding result [2]: no binding

B2: human STIL coiled-coil domain (aa 717-758), tag cleaved (domain or fragment)
chain: GGSGLSPDAYRFLTEQDRQLRLLQAQIQRLLEAQSLMPCSPKTTA
notes: remnant left at the N-terminus of the CCD after TEV cleavage of the His-lipoyl tag; STIL, human, coiled-coil domain, residues 717-758; also called HsCCD; STIL CCD; source: E. coli C41, purified (Ni-NTA, TEV cleavage, reverse Ni-NTA, size exclusion); not shown: His, N-terminal, cleaved; lipoyl domain (B. stearothermophilus dihydrolipoamide acetyltransferase), N-terminal, cleaved
- stoichiometry N [3]: ≥ 2 and < 4

B3: human PLK4 Polo-Box-3 domain (aa 884-970), tag cleaved (domain or fragment)
chain: GPMGSAQLLKSVFVKNVGWATQLTSGAVWVQFNDGSQLVVQAGVSSISYTSPNGQTTRYGENEKLPDYIKQKLQCLSSILLMFSNPTPNFH
notes: remnant left at the N-terminus of the PB3 construct after 3C cleavage of the His-MBP tag; PLK4, human, Polo-Box-3 domain, residues 884-970; from an E. coli codon-optimised cDNA (Geneart); also called HsPB3; apoHsPB3; source: E. coli B834, purified (Ni-NTA, 3C cleavage, reverse Ni-NTA, size exclusion); not shown: His, N-terminal, cleaved; MBP, N-terminal, cleaved
- stoichiometry N [4]: 2
